Tested on: peptide library, one residue held at a place counted from the Y acceptor
Assay: relative phosphorylation of the sub-library (ratio to the mean residue at this position); higher = residue favoured
Summary of the method: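 Biotinylated Tyr-centred peptide library mixtures, each fixing one residue at one position from −5 to +5, were incubated with purified recombinant kinases in 384-well plates for 90 min with 50 μM ATP plus γ-32P-ATP. Streptavidin membranes captured the peptides, which were rinsed and quantified by phosphorimaging and ImageQuant. At each position, intensities were divided by the sum of the 18 randomized residues (16 for the Ser/Thr-free library) and multiplied by that number. Each value is phosphorylation relative to the mean randomized residue.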

JAK2, construct: aa809-end plus 9aa C-term extension from Gateway cloning, human, sequence (O60674 809-1132, looked up): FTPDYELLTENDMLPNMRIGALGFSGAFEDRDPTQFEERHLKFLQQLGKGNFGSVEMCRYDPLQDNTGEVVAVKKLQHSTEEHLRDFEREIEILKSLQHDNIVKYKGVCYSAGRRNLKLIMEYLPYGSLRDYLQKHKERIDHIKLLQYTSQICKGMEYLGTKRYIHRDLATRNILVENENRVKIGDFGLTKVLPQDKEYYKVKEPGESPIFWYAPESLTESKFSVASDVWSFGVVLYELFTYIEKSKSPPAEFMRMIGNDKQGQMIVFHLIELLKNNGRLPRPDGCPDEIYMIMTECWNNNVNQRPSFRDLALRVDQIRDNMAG
JAK3, construct: aa795-end, human, sequence (P52333 795-1124, looked up): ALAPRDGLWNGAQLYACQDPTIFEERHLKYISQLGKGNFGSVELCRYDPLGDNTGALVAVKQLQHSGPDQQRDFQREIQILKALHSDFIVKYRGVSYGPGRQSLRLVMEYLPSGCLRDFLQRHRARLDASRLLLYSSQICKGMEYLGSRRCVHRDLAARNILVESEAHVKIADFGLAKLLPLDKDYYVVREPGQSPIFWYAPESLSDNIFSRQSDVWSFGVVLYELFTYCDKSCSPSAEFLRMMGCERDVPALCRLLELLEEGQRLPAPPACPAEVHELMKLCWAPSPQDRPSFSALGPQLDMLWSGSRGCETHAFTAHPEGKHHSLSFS
KDR, construct: aa789-end, human, sequence (P35968 789-1356, looked up): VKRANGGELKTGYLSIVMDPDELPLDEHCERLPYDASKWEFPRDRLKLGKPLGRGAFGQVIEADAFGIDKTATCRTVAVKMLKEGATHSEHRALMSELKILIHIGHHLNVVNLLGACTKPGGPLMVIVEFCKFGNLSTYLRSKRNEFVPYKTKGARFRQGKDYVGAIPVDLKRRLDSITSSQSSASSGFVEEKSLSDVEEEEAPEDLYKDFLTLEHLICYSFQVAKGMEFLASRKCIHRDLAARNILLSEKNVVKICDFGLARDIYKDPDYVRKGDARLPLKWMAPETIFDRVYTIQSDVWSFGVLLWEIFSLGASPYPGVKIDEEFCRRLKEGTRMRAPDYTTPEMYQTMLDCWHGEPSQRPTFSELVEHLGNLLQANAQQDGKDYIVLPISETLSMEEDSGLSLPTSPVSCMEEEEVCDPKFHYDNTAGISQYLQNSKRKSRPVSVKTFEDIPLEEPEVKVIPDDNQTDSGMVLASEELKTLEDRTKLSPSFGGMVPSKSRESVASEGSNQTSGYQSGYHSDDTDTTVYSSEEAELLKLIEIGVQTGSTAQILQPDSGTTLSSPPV

JAK2, construct: aa809-end plus 9aa C-term extension from Gateway cloning, human (from UniProt O60674)
relative phosphorylation
Details | at +1 | at +2 | at +3 | at +4 | at +5 | at -1 | at -2 | at -3 | at -4 | at -5
A fixed | 1.07 | 0.945 | 0.889 | 0.971 | 1.11 | 1.13 | 0.982 | 1.02 | 1.07 | 1.08
D fixed | 0.252 | 0.644 | 0.411 | 0.858 | 0.792 | 1.32 | 0.91 | 1 | 1.04 | 0.999
E fixed | 0.45 | 0.78 | 0.33 | 0.934 | 0.764 | 1.18 | 0.98 | 1.01 | 1.26 | 0.926
F fixed | 1.63 | 1.08 | 1.42 | 1.12 | 1.02 | 1.11 | 0.961 | 1.05 | 1.09 | 1.07
G fixed | 0.48 | 0.786 | 0.788 | 1.13 | 1.25 | 0.999 | 1.14 | 1.18 | 1.36 | 1.1
H fixed | 1.42 | 0.785 | 1.12 | 1.05 | 1.04 | 1.05 | 1.07 | 0.901 | 0.929 | 0.919
I fixed | 1.97 | 0.961 | 1.94 | 0.87 | 0.922 | 1.26 | 1.04 | 0.953 | 0.963 | 1.06
K fixed | 0.447 | 1.23 | 0.52 | 1.11 | 0.962 | 0.659 | 0.998 | 0.825 | 0.861 | 0.903
L fixed | 1.55 | 1.08 | 1.43 | 0.892 | 0.927 | 1.11 | 1.05 | 1.03 | 1.05 | 1.07
M fixed | 1.35 | 1 | 1.25 | 1.15 | 0.946 | 0.87 | 0.794 | 0.901 | 0.997 | 1.05
N fixed | 0.45 | 0.982 | 0.681 | 0.846 | 0.871 | 0.762 | 0.981 | 1.01 | 0.849 | 1.02
P fixed | 0.566 | 1.03 | 1.24 | 1.04 | 1.64 | 1.16 | 1.13 | 1.45 | 1.16 | 1.22
Q fixed | 0.9 | 0.975 | 0.667 | 1.12 | 0.867 | 0.745 | 0.954 | 0.824 | 1.11 | 1.01
R fixed | 0.623 | 1.2 | 0.686 | 1.09 | 0.931 | 0.616 | 0.984 | 0.757 | 0.886 | 0.877
S fixed | 0.814 | 1.02 | 0.893 | 0.966 | 1.1 | 0.987 | 1.05 | 1.02 | 0.772 | 0.927
T fixed | 1.09 | 1.07 | 1.17 | 0.909 | 1.06 | 0.989 | 0.98 | 0.976 | 0.716 | 0.824
V fixed | 1.76 | 1.1 | 1.35 | 0.915 | 0.886 | 1.14 | 0.983 | 1.03 | 0.836 | 0.988
W fixed | 1.18 | 1.32 | 1.23 | 1.04 | 0.914 | 0.909 | 1 | 1.05 | 1.05 | 0.952
pThr fixed | 0.332 | 0.537 | 0.205 | 0.53 | 0.543 | 1.1 | 0.744 | 0.944 | 1 | 0.905
pTyr fixed | 0.814 | 0.927 | 0.422 | 0.803 | 0.643 | 1.59 | 0.983 | 1.35 | 1.4 | 1.15

JAK3, construct: aa795-end, human (from UniProt P52333)
relative phosphorylation
Details | at +1 | at +2 | at +3 | at +4 | at +5 | at -1 | at -2 | at -3 | at -4 | at -5
A fixed | 0.882 | 0.772 | 0.718 | 0.933 | 1.08 | 0.848 | 0.973 | 1.02 | 1.07 | 1.1
D fixed | 0.438 | 0.975 | 0.429 | 0.902 | 0.84 | 3 | 1.02 | 1.3 | 1.08 | 1.09
E fixed | 0.497 | 0.834 | 0.342 | 0.687 | 0.843 | 2.01 | 1.05 | 1.18 | 1.22 | 0.94
F fixed | 2.22 | 1.17 | 1.18 | 1.07 | 0.874 | 0.763 | 0.839 | 0.962 | 1.05 | 1.02
G fixed | 0.36 | 0.532 | 0.643 | 1.08 | 1.1 | 0.699 | 1.24 | 1.07 | 1.07 | 1.2
H fixed | 1.44 | 0.984 | 1.19 | 1.01 | 0.967 | 0.968 | 1.03 | 1.11 | 1.04 | 1.12
I fixed | 1.17 | 0.644 | 1.54 | 0.676 | 0.66 | 0.817 | 0.597 | 0.632 | 0.682 | 0.736
K fixed | 0.436 | 0.82 | 0.794 | 1.29 | 1.24 | 0.493 | 0.982 | 0.857 | 0.91 | 1.12
L fixed | 0.877 | 0.998 | 1.71 | 0.839 | 0.771 | 0.69 | 0.862 | 0.707 | 0.726 | 0.793
M fixed | 1.06 | 1.21 | 1.5 | 0.883 | 0.852 | 0.593 | 0.86 | 0.72 | 0.847 | 0.828
N fixed | 0.54 | 1.17 | 0.7 | 0.965 | 1.22 | 1.31 | 1.31 | 1.41 | 1.04 | 0.946
P fixed | 0.455 | 0.945 | 0.773 | 1.02 | 1.22 | 0.759 | 1.07 | 1.07 | 1.11 | 1.03
Q fixed | 1.04 | 1.02 | 0.883 | 1.22 | 1.13 | 0.874 | 1.31 | 1.15 | 1.11 | 0.971
R fixed | 0.665 | 0.876 | 1.03 | 1.3 | 1.46 | 0.55 | 1.1 | 1.01 | 1.15 | 1.14
S fixed | 0.697 | 0.848 | 0.916 | 1.11 | 1.4 | 0.831 | 1.22 | 1.21 | 1.07 | 1.05
T fixed | 0.73 | 0.902 | 1.15 | 0.972 | 0.959 | 0.935 | 0.989 | 1.07 | 0.839 | 0.973
V fixed | 1.65 | 0.807 | 1.2 | 0.819 | 0.716 | 0.842 | 0.671 | 0.72 | 0.7 | 0.77
W fixed | 2.27 | 2.25 | 1.37 | 1.31 | 1.03 | 0.791 | 1.09 | 1.1 | 1.19 | 1.19
pThr fixed | 0.626 | 1.2 | 0.391 | 0.528 | 0.682 | 2.23 | 1 | 1.16 | 1.01 | 0.871
pTyr fixed | 1.04 | 0.925 | 0.369 | 0.583 | 0.725 | 2.37 | 1.05 | 1.32 | 1.01 | 0.825

KDR, construct: aa789-end, human (from UniProt P35968)
relative phosphorylation
Details | at +1 | at +2 | at +3 | at +4 | at +5 | at -1 | at -2 | at -3 | at -4 | at -5
A fixed | 0.852 | 0.685 | 0.543 | 0.829 | 0.944 | 0.816 | 0.954 | 0.915 | 1.04 | 1
D fixed | 0.301 | 0.599 | 0.314 | 0.665 | 0.745 | 2.25 | 1.1 | 1.21 | 1.04 | 0.987
E fixed | 0.416 | 0.621 | 0.246 | 0.608 | 0.696 | 1.46 | 1.2 | 1.29 | 1.26 | 0.973
F fixed | 1.6 | 1.34 | 2.2 | 1.1 | 1.04 | 0.846 | 0.617 | 0.819 | 0.818 | 0.816
G fixed | 0.612 | 0.417 | 0.465 | 1.01 | 1.13 | 0.631 | 1.36 | 1.17 | 1.33 | 1.21
H fixed | 1.37 | 0.86 | 0.523 | 0.95 | 0.978 | 1.37 | 1.12 | 1.02 | 0.975 | 1.03
I fixed | 1.22 | 0.919 | 2.05 | 0.733 | 0.86 | 1.05 | 0.546 | 0.573 | 0.741 | 0.756
K fixed | 0.944 | 1.32 | 0.469 | 1.52 | 1.17 | 0.726 | 1.21 | 1.18 | 1.2 | 1.49
L fixed | 1.06 | 1.39 | 2.56 | 0.906 | 0.907 | 0.886 | 0.723 | 0.745 | 0.788 | 0.771
M fixed | 1.17 | 1.06 | 2.1 | 0.996 | 1.04 | 0.654 | 0.645 | 0.699 | 0.826 | 0.857
N fixed | 0.634 | 1.12 | 0.465 | 0.862 | 1.05 | 1.36 | 1.32 | 1.23 | 0.886 | 1.08
P fixed | 0.645 | 0.63 | 0.787 | 1.29 | 1.26 | 0.842 | 1.08 | 1.15 | 1.28 | 1.14
Q fixed | 1.27 | 1.01 | 0.561 | 1.02 | 0.916 | 1.07 | 1.19 | 1.09 | 1.12 | 1.01
R fixed | 1.14 | 1.77 | 0.7 | 1.6 | 1.39 | 0.841 | 1.55 | 1.29 | 1.36 | 1.44
S fixed | 0.712 | 0.921 | 0.599 | 0.982 | 1.09 | 0.671 | 1.14 | 1.05 | 0.856 | 0.973
T fixed | 0.939 | 0.924 | 0.675 | 0.989 | 1.18 | 0.86 | 0.938 | 1.06 | 0.743 | 0.947
V fixed | 1.79 | 1.02 | 1.65 | 0.841 | 0.733 | 0.962 | 0.637 | 0.633 | 0.756 | 0.768
W fixed | 1.31 | 1.39 | 1.09 | 1.09 | 0.872 | 0.689 | 0.658 | 0.883 | 0.991 | 0.761
pThr fixed | 0.636 | 1.09 | 0.307 | 0.54 | 0.602 | 1.64 | 1.14 | 1.41 | 1.1 | 1.25
pTyr fixed | 2.12 | 1.83 | 0.405 | 0.526 | 0.731 | 2.89 | 1.99 | 2.27 | 2.12 | 1.45
